B1: LRRC45 (parent)
chain: DLSAANEKNLLLQNQVDELERKFR

Variants of: B1
Test: protein stability index of a GFP-peptide fusion (GPS, HEK-293T) (PSI 1-6); higher = more stable
Conditions: c terminus: a fixed tail appended
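Also: lentivirally expressed fusions sorted by FACS into six bins by GFP to DsRed ratio, PSI derived from sequencing read proportions per bin multiplied by bin number.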

Protein stability index of substitutions, site by site:
D1: A 4.6, N 4.4, K 4.19, H 4.42, G 4.55, Q 4.21
A5: I 4.02, W 3.34, L 3.83, M 3.62, E 4.01, Q 3.9, S 4.39, P 4, T 3.91, F 3.79, C 4.42
E18: H 3.35, M 3.23, W 3.36, Q 3.56, V 3.44, L 3.31, C 3.4, F 3.16, S 3.33, K 3.94
L19: D 5.16, W 3.75, T 4.34, M 4.03, G 4.41, Q 3.99
F23: R 3.86, C 4.01, H 3.98, W 3.13, K 4.33, L 4.33, D 5
K8: Y 3.63, V 3.85, A 4.62, W 3.6, E 4.56, L 3.6, D 4.21, I 3.43
R24: Q 4.91, D 4.86, Y 4.17, A 4.69, L 3.78, H 4.31
N6: S 4.92, Y 3.77, D 5.02, A 5.2, P 4.62, M 3.97, F 3.62, T 4.4, W 3.37, Q 4.73, C 4.59
A4: T 4.06, P 4.11, N 3.29, I 3.81, E 4.53, G 3.77, Q 3.82, D 4.67
V16: R 4.17, L 4.05, Y 3.6, W 3.55, Q 4.29, T 3.66, A 4.48, G 3.69
Q13: F 3.44, M 3.71, V 4.53, Y 3.42, I 3.6, E 4.71
L10: E 4.94, C 4.07, Q 4.51, M 4.09, W 3.89, P 4.75, H 4.62
N9: L 3.54, S 4.63, H 4.2, K 4.11, M 4.24, R 4.02, D 4.91, Q 4.57, C 4.23, A 4.77, E 4.89
E20: S 3.8, Y 2.86, P 3.12, C 3.73, L 3.23, R 3.06, I 3.47
L12: G 4.03
N14: K 3.69, Y 3.65, L 3.43, Q 4.49
E7: H 3.94
K22: M 3.34, G 3.62, Y 3.34, D 4.31, V 3.27
L2: T 4.92, R 4.86, N 4.64, Q 4.69
L11: E 4.84, S 4.31, Q 4.31, H 4.59, V 3.96, T 3.86, M 3.56, C 4.15, N 4.5, K 4.57
S3: T 3.62, G 4.54, I 3.51, Y 3.58, W 3.18, Q 4.04, V 3.89, R 4.26, M 4.11, K 4.15, E 4.86
D17: F 2.81, H 2.99, C 3.24, T 2.96, A 3.58, L 3.24, R 2.97, M 3.58
Q15: N 3.75, E 4.7, T 3.35, D 4.4, H 4.04
R21: V 4.05, I 3.55, S 4.23, P 4.2, Y 4.14, E 4.56

Reference: the supplement of paper PMC10567573
